The record followed here is US20210032331A1 (PHANES THERAPEUTICS, published 2021).

The target of experiment [1] is T1, B12 (human IgG1 heavy chain and kappa light chain chimeric).
T1 construct: Chimeric: mouse VH and VL with human IgG1 heavy chain and kappa light chain constant regions
In words: ELISA peptide competition: peptide preincubated with chimeric IgG1 B12, competitor hLAG3-mFc; capture on anti-human IgG, anti-mouse IgG-HRP. The method, then:
(§1) FIGS. 5A-5D show the effect of competition peptides on LAG-3 binding to anti-LAG-3 mAbs. […] B5/IgG4 was preincubated with a competition peptide for 30 minutes. Then human LAG-3 extracellular domain (ECD) fused to mouse Fc (hLAG3-mFc) was added (the final peptide concentration was 600-fold that of hLAG3-mFc) and the mixture was incubated for 60 minutes before being added to an ELISA plate coated with anti-human IgG. The incubation was carried out at 4° C. overnight. After washing, the hLAG3-mFc bound to the immobilized B5/IgG4 on the ELISA plate was detected by adding anti-mouse IgG conjugated to horseradish peroxidase (HRP) and incubating for 60 minutes. Then, after washing, the ELISA was developed using One-step Detection Solution and measured as the absorbance at 450 nm.
(§2) Anti-human IgG in carbonate coating buffer was coated on an ELISA plate at 4° C. (50 μL/well at 1 μg/mL) overnight. In each well of a separate plate, a chimeric version of a given anti-LAG-3 mAb (50 μL/well at 1.4 nM) and a competition peptide (50 μL/well at various concentrations as indicated in the figures) were mixed and incubated for 30 minutes at room temperature. Then human LAG-3 extracellular domain (ECD) fused to mouse Fc (hLAG3-mFc) was added to each well (50 μL/well at 2 nM) and the final mixture was incubated at room temperature for 60 minutes before added to the ELISA plate (50 μL/well) for another 60-minute incubation. The final incubation after adding the mixture to the ELISA plate was also performed at 4° C. overnight in some assays. The plate was washed and the binding of hLAG3-mFc to the immobilized anti-LAG-3 mAb was detected by adding anti-mouse IgG conjugated to horseradish peroxidase ([…]) (ThermoFisher Scientific, Cat#: A16084; Waltham, Mass.) and incubating for 60 minutes.
In general terms: In an ELISA, binding on a coated surface is turned into a signal by an enzyme label.

Experiment [2] concerns the target T2, B5/IgG4.
T2 construct: Chimeric: mouse VH and VL with human IgG4 heavy chain and kappa light chain constant regions; also called B5 (human IgG4 heavy chain and kappa light chain chimeric)
Nature of the experiment: ELISA peptide competition: peptide preincubated with B5/IgG4, competitor hLAG3-mFc; capture on anti-human IgG, anti-mouse IgG-HRP. How it is done:
as §1, §2

The next experiment concerns the target T3, B7/IgG4.
T3 construct: Chimeric: mouse VH and VL with human IgG4 heavy chain and kappa light chain constant regions; also called B7 (human IgG4 heavy chain and kappa light chain chimeric)
In words: ELISA peptide competition: peptide preincubated with B7/IgG4, competitor hLAG3-mFc; final incubation 60 min at room temperature; anti-mouse IgG-HRP. How it is done: B5/IgG4 was preincubated with a competition peptide for 30 minutes. Then human LAG-3 extracellular domain (ECD) fused to mouse Fc (hLAG3-mFc) was added (the final peptide concentration was 600-fold that of hLAG3-mFc) and the mixture was incubated for 60 minutes before being added to an ELISA plate coated with anti-human IgG. The incubation was carried out at 4° C. overnight. After washing, the hLAG3-mFc bound to the immobilized B5/IgG4 on the ELISA plate was detected by adding anti-mouse IgG conjugated to horseradish peroxidase (HRP) and incubating for 60 minutes. Then, after washing, the ELISA was developed using One-step Detection Solution and measured as the absorbance at 450 nm.
The assay condition is the same as in FIG. 5A except that the final incubation of the mAb, the competition peptide, and hLAG3-mFc on the ELISA plate was performed at room temperature for 60 minutes instead of incubation at 4° C. overnight.
Anti-human IgG in carbonate coating buffer was coated on an ELISA plate at 4° C. (50 μL/well at 1 μg/mL) overnight. In each well of a separate plate, a chimeric version of a given anti-LAG-3 mAb (50 μL/well at 1.4 nM) and a competition peptide (50 μL/well at various concentrations as indicated in the figures) were mixed and incubated for 30 minutes at room temperature. Then human LAG-3 extracellular domain (ECD) fused to mouse Fc (hLAG3-mFc) was added to each well (50 μL/well at 2 nM) and the final mixture was incubated at room temperature for 60 minutes before added to the ELISA plate (50 μL/well) for another 60-minute incubation.

The target of experiment [3] is T4, full-length human LAG-3 on stably transfected CHO-S cells (human, UniProt P18627 23-525).
T4 construct: also called hLAG3
T4 sequence: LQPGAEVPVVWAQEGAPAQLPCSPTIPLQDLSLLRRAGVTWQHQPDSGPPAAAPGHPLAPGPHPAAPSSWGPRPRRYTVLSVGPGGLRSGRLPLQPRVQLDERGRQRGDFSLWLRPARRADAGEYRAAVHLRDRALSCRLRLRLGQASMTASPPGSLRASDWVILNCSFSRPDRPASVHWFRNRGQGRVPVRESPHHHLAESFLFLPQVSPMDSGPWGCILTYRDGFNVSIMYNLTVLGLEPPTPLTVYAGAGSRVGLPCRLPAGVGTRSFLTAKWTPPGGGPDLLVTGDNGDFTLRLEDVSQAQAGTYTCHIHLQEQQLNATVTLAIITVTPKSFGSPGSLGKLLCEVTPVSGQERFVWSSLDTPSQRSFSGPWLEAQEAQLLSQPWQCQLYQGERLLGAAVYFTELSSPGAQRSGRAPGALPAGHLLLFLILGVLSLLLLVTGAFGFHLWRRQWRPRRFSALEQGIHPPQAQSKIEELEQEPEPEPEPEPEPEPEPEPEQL
Nature of the experiment: FACS, CHO-S cells stably transfected with full-length human LAG-3, PE anti-mouse IgG. The method, then:
CHO-S cells stably transfected with full-length human LAG-3 were transferred to a 96-well plate. Around 200,000 cells were incubated with either purified chimeric anti-LAG-3 mAbs (variable regions of mouse mAbs fused to the constant regions of human IgG1 heavy chain and kappa light chain, respectively) or purified mouse anti-LAG-3 mAbs from hybridoma supernatants at various concentrations for 15 minutes at 4° C. Cells were then centrifuged at 1,000 rpm for 5 minutes and washed with FACS buffer (PBS supplemented with 5% BSA) three times. For the cells treated with the chimeric antibodies, the cells were then incubated with PE-conjugated goat anti-human IgG polyclonal antibodies and incubated on ice for another 15 minutes; for the cells treated with mouse mAbs, the cells were incubated with PE-conjugated goat anti-mouse IgG polyclonal antibodies and incubated on ice for another 15 minutes. Cells were then washed with FACS buffer three times and then resuspended in FACS buffer containing 0.1 μg/ml PI (propidium iodide) for live/dead cell gating. Cells were then run through the FACS Caliber instrument and the data were analyzed by the Flowjo software. Results of the FACS binding analysis of the mouse anti-LAG-3 mAbs (B1, B2, B3, B4, B5, B6, B7, B8, B9, B10, B11, B12, and B13) are provided in FIGS. 1A-1B.

Another experiment deals with T5, human LAG-3(ECD)-huFc (human, UniProt P18627 23-450).
T5 construct: also called Fc-tagged human LAG-3(ECD)-huFc; not shown: human Fc (huFc) at the C-terminus
T5 sequence: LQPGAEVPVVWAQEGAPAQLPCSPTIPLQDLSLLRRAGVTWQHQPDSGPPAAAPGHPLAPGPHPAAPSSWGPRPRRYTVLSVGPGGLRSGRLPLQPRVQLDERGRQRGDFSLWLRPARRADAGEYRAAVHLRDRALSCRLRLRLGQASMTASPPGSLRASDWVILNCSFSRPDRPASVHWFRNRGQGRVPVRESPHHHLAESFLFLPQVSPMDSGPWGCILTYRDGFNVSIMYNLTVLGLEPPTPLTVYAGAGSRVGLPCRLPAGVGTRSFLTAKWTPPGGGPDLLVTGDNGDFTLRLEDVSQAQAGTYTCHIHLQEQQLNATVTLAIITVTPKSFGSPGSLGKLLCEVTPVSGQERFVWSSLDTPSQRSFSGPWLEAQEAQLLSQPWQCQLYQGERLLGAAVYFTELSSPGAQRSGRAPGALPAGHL
In words: SPR (Biacore): mAb from hybridoma supernatant captured on anti-mouse IgG CM5 chip, human LAG-3(ECD)-huFc 50-400 nM injected. The method, then: Anti-mouse IgG antibodies were immobilized via amine coupling on CM5 chip surface. Anti-LAG-3 mAbs in hybridoma supernatants were captured on the chip surface and a series of concentrations (50-400 nM) of human LAG-3(ECD)-huFc protein were injected and passed through the captured surface. The on and off rates for antibody-antigen binding were measured, curve fitted and calculated.
(In general: SPR reads the build-up and loss of mass on a sensor chip optically.)

In experiment [4] the target is T6, BG29 (human IgG4 heavy chain and kappa light chain chimeric).
T6 construct: Chimeric: mouse VH and VL with human IgG4 heavy chain and kappa light chain constant regions; also called chimeric BG29
T6 sequence (VH, as listed by the source, chain 1 of 2): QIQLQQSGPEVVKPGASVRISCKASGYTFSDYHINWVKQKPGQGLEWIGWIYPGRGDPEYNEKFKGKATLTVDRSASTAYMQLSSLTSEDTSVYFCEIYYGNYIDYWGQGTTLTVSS
T6 sequence (VL, as listed by the source, chain 2 of 2): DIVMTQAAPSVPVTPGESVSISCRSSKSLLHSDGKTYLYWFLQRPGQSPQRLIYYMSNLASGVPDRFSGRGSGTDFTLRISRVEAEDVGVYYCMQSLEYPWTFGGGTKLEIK
In words: ELISA peptide competition: peptide preincubated with chimeric IgG4 BG29, competitor hLAG3-mFc; peptide at 200-fold hLAG3-mFc; capture on anti-human IgG, anti-mouse IgG-HRP. How it is done:
as §1, §2

In experiment [5] the target is T6, BG29 (human IgG4 heavy chain and kappa …). Nature of the experiment: ELISA peptide competition: peptide preincubated with chimeric IgG4 BG29, competitor hLAG3-mFc; capture on anti-human IgG, anti-mouse IgG-HRP. How it is done: as §1, §2
Experiment [6] deals with T2, B5/IgG4. In words: ELISA peptide competition: peptide preincubated with B5/IgG4, competitor hLAG3-mFc; peptide at 600-fold hLAG3-mFc; capture on anti-human IgG, anti-mouse IgG-HRP.
In experiment [7] the target is T1, B12 (human IgG1 heavy chain and kappa …). In words: ELISA peptide competition: peptide preincubated with chimeric IgG1 B12, competitor hLAG3-mFc; peptide at 600-fold hLAG3-mFc; capture on anti-human IgG, anti-mouse IgG-HRP.

T3 sequence (VH, as listed by the source): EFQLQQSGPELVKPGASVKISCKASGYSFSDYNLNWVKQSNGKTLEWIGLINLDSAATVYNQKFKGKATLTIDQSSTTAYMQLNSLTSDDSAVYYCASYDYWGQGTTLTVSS
T1 sequence (VH, as listed by the source, chain 1 of 2): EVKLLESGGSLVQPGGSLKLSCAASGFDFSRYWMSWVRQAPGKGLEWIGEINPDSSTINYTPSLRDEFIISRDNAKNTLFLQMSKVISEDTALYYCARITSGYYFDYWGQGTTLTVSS
T1 sequence (VL, as listed by the source, chain 2 of 2): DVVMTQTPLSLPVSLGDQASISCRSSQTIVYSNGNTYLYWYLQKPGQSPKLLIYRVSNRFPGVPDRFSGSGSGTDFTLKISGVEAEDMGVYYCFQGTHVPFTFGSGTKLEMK

QPDSGPPAAAPGHP (also called peptide Q14) [Q14]: the binding result (in [1]; in the experiment with B5/IgG4 [2]) was “no binding (tested: 600-fold hLAG3-mFc)” each time.

As to SSWGPRPRRY (also called peptide 21-30) [21-30], in the experiment with B7/IgG4, the binding result is reported as “no binding (tested: 600-fold hLAG3-mFc)”.

Consider PSSWGPRPRRY (also called peptide 20-30) [20-30], for which, in the experiment with B7/IgG4, the binding result is listed as “no binding (tested: 600-fold hLAG3-mFc)”.

B1: B9 (antibody, V domains shown)
VH: EVQLRQSGPVLVKPGASVKMSCKASGYTFTGYYMNWVKQSHGKSLEWLAVINPYNGDTAYNRKFKGRATLTVDKSSSTAYMELNRLTSEDSAVYYCVRDDGYHVRYFDVWGTGTTVTVSS
VL: DIQMTQSPSSLSASLGERVSLTCRASQDISDSLCWLQQKPDGTIKRLIYSTSTLDSGVPKRFSGSRSGSDYSLTISSLESEDFADYYCLQYASSPPTFGGGTKLEIK
notes: Mouse mAb from hybridoma; also called mouse anti-LAG-3 mAb B9
For orientation: EC50 (read off the curve) means the concentration needed to bring the measured effect to its halfway point. Low values mean an effect from little substance, high ones a need for much substance. A word on the Kd: it is the equilibrium constant for the complex coming apart. As to B1, in experiment [3], the “EC50 (read off the curve)” value was roughly 0.2 µg/mL. This molecule yielded a Kd in the experiment with human LAG-3(ECD)-huFc of 1.53 nM.

As for AAPGHPLAPG (also called peptide 5-14) [5-14], the figures for the binding result in experiment [1] and in experiment [4] were “no binding (tested: 600-fold hLAG3-mFc)” and “binds”, respectively.

Take PHPAAPSSWGPR (also called peptide 15-26) [15-26]: the binding result with B7/IgG4 is “no binding (tested: 600-fold hLAG3-mFc)”.

Regarding APGHPLAPG (also called peptide 6-14) [6-14], the values for the binding result in experiment [1] and in [5] were “no binding (tested: 600-fold hLAG3-mFc)” and “no binding (tested: 200-fold hLAG3-mFc)”, respectively.

For the molecule GPPAAAPGHPLA (also called peptide 1-12) [1-12], the binding result in experiment [5] is “no binding (tested: 200-fold hLAG3-mFc)”; in the experiment with B5/IgG4 [6], “binds”.

In the case of AAAPGHPLAPG (also called peptide 4-14) [4-14], the binding result was “no binding (tested: 600-fold hLAG3-mFc)” in experiment [1] and “binds” in experiment [4].

On to PGHPLAPG (also called peptide 7-14) [7-14], for which, in [5], the binding result was “no binding (tested: 200-fold hLAG3-mFc)”.

Turning to GPPAAAPGHPL (also called peptide 1-11) [1-11], the binding result with B5/IgG4 [2] is reported as “no binding (tested: 600-fold hLAG3-mFc)”.

For APGHPLAP (also called peptide 6-13) [6-13], the binding result in experiment [5] was “no binding (tested: 200-fold hLAG3-mFc)”.

In the case of PAAAPGHPLAPG (also called peptide 3-14) [3-14], the values for the binding result (in experiment [7]; with B5/IgG4 [2]; in experiment [4]) were “binds”, “no binding (tested: 600-fold hLAG3-mFc)” and “binds”, respectively.

Turning to QPDSGPPAAAPGHPL (also called peptide Q15) [Q15], the binding result (in [1]; in the experiment with B5/IgG4 [2]) was “no binding (tested: 600-fold hLAG3-mFc)” each time.
